Where “and” joins values, the source holds several entries; their conditions need not be identical. Equal values may be shown once.
B1: ABC-T268A: P450BM3 variant: T268A, C400S (protein, listed as Bacillus megaterium)
chain: TIKEMPQPKTFGELKNLPLLNTDKPVQALMKIADELGEIFKFEAPGRVTRYLSSQRLIKEACDESRFDKNLSQALKFVRDFAGDGLFTSWTHEKNWKKAHNILLPSFSQQAMKGYHAMMVDIAVQLVQKWERLNADEHIEVPEDMTRLTLDTIGLCGFNYRFNSFYRDQPHPFITSMVRALDEAMNKLQRANPDDPAYDENKRQFQEDIKVMNDLVDKIIADRKASGEQSDDLLTHMLNGKDPETGEPLDDENIRYQIITFLIAGHEATSGLLSFALYFLVKNPHVLQKAAEEAARVLVDPVPSYKQVKQLKYVGMVLNEALRLWPTAPAFSLYAKEDTVLGGEYPLEKGDELMVLIPQLHRDKTIWGDDVEEFRPERFENPSAIPQHAFKPFGNGQRASIGQQFALHEATLVLGMMLKHFDFEDHTNYELDIKETLTLKPEGFVVKAKSKKIPLGGIPSPSTEQSAKKVRKKAENAHNTPLLVLYGSNMGTAEGTARDLADIAMSKGFAPQVATLDSHAGNLPREGAVLIVTASYNGHPPDNAKQFVDWLDQASADEVKGVRYSVFGCGDKNWATTYQKVPAFIDETLAAKGAENIADRGEADASDDFEGTYEEWREHMWSDVAAYFNLDIENSEDNKSTLSLQFVDSAADMPLAKMHGAFSTNVVASKELQQPGSARSTRHLEIELPKEASYQEGDHLGVIPRNYEGIVNRVTARFGLDASQQIRLEAEEEKLAHLPLAKTVSVEELLQYVELQDPVTRTQLRAMAAKTVCPPHKVELEALLEKQAYKEQVLAKRLTMLELLEKYPACEMKFSEFIALLPSIRPRYYSISSSPRVDEKQASITVSVVSGEAWSGYGEYKGIASNYLAELQEGDTITCFISTPQSEFTLPKDPETPLIMVGPGTGVAPFRGFVQARKQLKEQGQSLGEAHLYFGCRSPHEDYLYQEELENAQSEGIITLHTAFSRMPNQPKTYVQHVMEQDGKKLIELLDQGAHFYICGDGSQMAPAVEATLMKSYADVHQVSEADARLWLQQLEEKGRYAKDVWAG
modifications: cytochrome P450NADPH-P-450 reductase precursor, cytochrome P450 (BM3), CYP102A1
notes: P450BM3 variant: T268A, C400S
B2: ABC-CIS: BM3-CIS + C400S (protein, listed as Bacillus megaterium)
chain: TIKEMPQPKTFGELKNLPLLNTDKPVQALMKIADELGEIFKFEAPGRVTRYLSSQRLIKEACDESRFDKNLSQALKFARDFAGDGLVTSWTHEKNWKKAHNILLPSFSQQAMKGYHAMMVDIAVQLVQKWERLNADEHIEVSEDMTRLTLDTIGLCGFNYRFNSFYRDQPHPFIISMVRALDEVMNKLQRANPDDPAYDENKRQFQEDIKVMNDLVDKIIADRKARGEQSDDLLTQMLNGKDPETGEPLDDGNIRYQIITFLIAGHEATSGLLSFALYFLVKNPHVLQKVAEEAARVLVDPVPSYKQVKQLKYVGMVLNEALRLWPTAPAFSLYAKEDTVLGGEYPLEKGDEVMVLIPQLHRDKTVWGDDVEEFRPERFENPSAIPQHAFKPFGNGQRASIGQQFALHEATLVLGMMLKHFDFEDHTNYELDIKETLTLKPKGFVVKAKSKKIPLGGIPSPSTEQSAKKVRKKAENAHNTPLLVLYGSNMGTAEGTARDLADIAMSKGFAPQVATLDSHAGNLPREGAVLIVTASYNGHPPDNAKQFVDWLDQASADEVKGVRYSVFGCGDKNWATTYQKVPAFIDETLAAKGAENIADRGEADASDDFEGTYEEWREHMWSDVAAYFNLDIENSEDNKSTLSLQFVDSAADMPLAKMHGAFSTNVVASKELQQPGSARSTRHLEIELPKEASYQEGDHLGVIPRNYEGIVNRVTARFGLDASQQIRLEAEEEKLAHLPLAKTVSVEELLQYVELQDPVTRTQLRAMAAKTVCPPHKVELEALLEKQAYKEQVLAKRLTMLELLEKYPACEMKFSEFIALLPSIRPRYYSISSSPRVDEKQASITVSVVSGEAWSGYGEYKGIASNYLAELQEGDTITCFISTPQSEFTLPKDPETPLIMVGPGTGVAPFRGFVQARKQLKEQGQSLGEAHLYFGCRSPHEDYLYQEELENAQSEGIITLHTAFSRMPNQPKTYVQHVMEQDGKKLIELLDQGAHFYICGDGSQMAPAVEATLMKSYADVHQVSEADARLWLQQLEEKGRYAKDVWAG
modifications: cytochrome P450NADPH-P-450 reductase precursor, cytochrome P450 (BM3), CYP102A1
notes: BM3-CIS + C400S

Assays:
[1] = Whole-cell C—H amination of azide 1; type: cell-based, E. coli BL21(DE3); settings: intact E. coli cells; for Yield sulfonamide (%) / Yield sultam (%): OD600=30, 2 mM azide 1, 24 hours; for Yield sulfonamide (%) / Yield sultam (%) / TTN: anaerobic; for TTN: added glucose; for % ee: (S − R)/(S + R)
Description: Reaction conditions were as follows: 2 mM azide 1, 25 mM glucose, E. coli BL21(DE3) cells in M9-N minimal medium (OD600=30), 2.5% DMSO, oxygen depletion system (100 U ml^−1 glucose oxidase, 1400 U ml^−1 catalase) reacted for 24 hours under anaerobic conditions at 298 K. Yields determined by HPLC quantification.
(§1) Whole cell reactions used E. coli BL21(DE3) cells containing P450 or P411 catalysts, which were expressed and prepared as described elsewhere (Coelho, P. S. et al., Highly efficient carbene transfer to olefins catalyzed in vivo. Submitted (2013)). Following expression, cells were resuspended to an OD600 of 30 in M9 salts lacking NH4Cl (M9-N), and then degassed by sparging with argon in a sealed 6 mL crimp vial for at least 0.5 h. Separately, glucose (250 mM dissolved in 1×M9-N, 40 μL, or multiples thereof) was degassed by sparging with argon for at least five minutes. The oxygen quenching mixture was added to sealed 2 mL crimp vials containing stir bars and the headspace of the vials was purged with argon for five minutes at which time glucose, and then cells were added by syringe. Substrate (80 mM arylsulfonyl azide, 10 uL in DMSO) was added via syringe, and the reactions were stirred at room temperature for 24 h under positive argon pressure.
as §1, with “E.” for “Whole cell reactions used E.”, “catalysts” for “catalysts, which”, “Coelho,” for “(Coelho,”, “μL” for “uL”, “pressure. Reactions were quenched in a manner identical to reactions containing purified enzymes as described above. For chiral HPLC, the reactions were extracted and purified in an identical manner as for reactions that employed purified enzymes. Lyophilized intact cells containing sucrose as a cryoprotectant were prepared as described elsewhere (Coelho, P. S. et al., Highly efficient carbene transfer to olefins catalyzed in vivo. Submitted (2013)). The resulting cell powder, containing expressed ABC-CIS (26 mg) were added along with a stir bar to a 2 mL crimp vial and then sealed. The headspace of the vial was degassed, oxygen quenching system (40 μL) was added via syringe, followed by degassed glucose (250 mM, 40 μL), M9-N (310 μL), and finally substrate (80 mM 1, 10 μL). Lyophilized cell reactions were stirred for 24 h at room temperature, then quenched and analyzed as described above. […]” for “pressure.”
The preparative reaction was scaled up proportionally from small-scale reactions. E. coli BL21 cells containing ABC-CIS (OD600 30, 90 mL in M9-N) were sparged with argon for 45 minutes in a round bottom flask (250 mL) containing a stir bar. Separately, glucose solution (250 mM, 11.6 mL) was sparged with argon in a conical flask. The oxygen quenching mixture (10×, 11.6 mL) was degassed in a conical flask that was placed under high vacuum until slight foaming occurred (1-2 s) and then back-filled with argon; this sequence was repeated several times. Sparged glucose solution was then added to the anaerobic cell suspension via syringe, followed by the oxygen quenching system. Finally, substrate 1 (80 mM, 2.9 mL DMSO) was added dropwise via syringe, and the reaction was stirred for 24 h at room temperature. To quench the reaction, dilute HCl (3 M, 8.7 mL) and acetonitrile (125 mL) were added. […]

[2] = Small-scale anaerobic C—H amination with purified enzymes, azide 6; type: biochemical; settings: 0.1% loading; azide 6
Description: (§2) Hemin also was capable of catalyzing this reaction when reduced with dithionite (Table 13).
(§3) Small scale reactions containing either 0.1% loading of ABC-CIS or ABC-T268A or 1% loading of hemin with azides 1, 4, or 6 according to standard procedures.
(§4) Small-scale reactions (400 μL) were conducted in 2 mL crimp vials (Agilent Technologies, San Diego, Calif.) containing buffer (0.1 M potassium phosphate pH 8.0), enzyme (0.1-0.5% catalyst loading) and oxygen depletion system (10× stock solution containing 14,000 U/mL catalase, 1,000 U/mL glucose oxidase dissolved in 0.1 M KPi pH 8.0). Enzyme (P450 or P411) solution and oxygen depletion mixture were added to the vial with a small stir bar before crimp-sealing. Portions of phosphate buffer (190 μL, 0.1 M, pH=8.0), glucose (40 μL, 250 mM) and NADPH (40 μL, 20 mM), or multiples thereof, were combined in a larger crimp sealed vial and degassed by sparging with argon for at least 5 min. In the meantime, the headspace of the sealed 2 mL reaction vial with the P450 solution was made anaerobic by flushing argon over the protein solution (with no bubbling). The buffer/reductant/glucose solution (270 μL) was syringed into the reaction vial with continuous argon purge of the vial headspace. An arylsulfonyl azide solution in DMSO (10 μL, 80 mM) was added to the reaction vial via a glass syringe, and the reaction was left stirring for 24 h at room temperature under positive argon pressure. Final concentrations of the reagents were typically: 2 mM arylsulfonyl azide, 2 mM NADPH, 25 mM glucose, 2 or 10 μM P450. Reactions were quenched by adding 30 μL 3 M HCl under argon. To the vials were then added acetonitrile (430 uL) and internal standard (o-toluenesulfonamide 10 mM in 50% acetonitrile 50% water, 1 mM final concentration). […] A portion (20 μL) of the supernatant was then analyzed by HPLC. […] Sultam formation was quantified comparison of integrated peak areas of internal standard and sultam at 220 nm to a calibration curve made using synthetically produced sultam and internal standard.

[3] = Small-scale anaerobic C—H amination with purified enzymes, azide 4; type: biochemical; settings: 0.1% loading; azide 4
Description: as §2, §3, §4

Row | Molecule | Yield sulfonamide (%) [1] | Yield sultam (%) [1] | TTN [1] | % ee [1] | Product (7) [2] | Product (5) [3]
1 | B1 | 45% | 30% | 245 and 250 | 89% | 27 | 22
2 | B2 | 50% | 46% | 680 | 60% | 36 | 26
